Test results from paper PMC12369479.
Several values for one entry are separate records, joined by “and”; a condition that tells them apart may be missing. Equal entries are not always repeated.

What was measured:
[1] = substrate: Nc1ncnc2c1ncn2[C@@H]1O[C@H](CO)[C@@H](O)[C@@H]1O; experiment: ADK activity, coupled reaction with PK and LDH; type: biochemical, Zea mays; conditions: other: ZmADK2, 10 mM ATP, pH 7.5, 30 °C
Description: (§1) Substrate analogs were purchased from Sigma-Aldrich (www.sigmaaldrich.com). The ADK activity was measured spectrophotometrically on an Agilent 8453 UV-Vis spectrophotometer (www.agilent.com) at 30 °C using a coupled reaction with pyruvate kinase (PK) and lactate dehydrogenase (LDH) (www.sigmaaldrich.com) ([Blondin et al., 1994]). In this assay, PK converts ADP produced by ADK and phosphoenolpyruvate (PEP) to pyruvate. Subsequently, LDH then converts pyruvate to lactate using the coenzyme NADH, with the conversion monitored at 340 nm. The reaction was conducted in 50 mM Tris–HCl buffer at pH 7.5, containing 50 mM KCl, 6 mM MgCl2, 300 µM PEP, 200 µM NADH, 10 mM ATP, 2 U of PK, and 2.5 U of LDH, using various nucleoside substrates. Kinetic constants were determined using GraphPad Prism 8.0 software (www.graphpad.com). Each measurement was performed six times using repetitive purified enzymes. The activities of all five ADKs were also measured by HPLC ([Moffatt et al., 1991]). The reaction mixture comprised 50 mM Tris–HCl pH 7.5, 5 mM MgCl2, 0.5 mM DTT, 30 mM NaF, 5 mM ATP, 40 µM substrate, and 2–150 ng of purified ADK, depending on the isoform. The reaction was incubated at 30 °C for up to 1 h. […] Similarly, the conversion of cytokinin ribosides to monophosphates was followed on a LiChrosphere 60 RP-Select B (5 µm) LiChroCART column 125-4 column equilibrated with 10 mM triethylamine at pH 5.4 plus 10% methanol, and stepwise eluted with 100% methanol.

[2] = substrate: CC(C)=CCNc1ncnc2c1ncn2C1OC(CO)C(O)C1O; experiment: ADK activity, coupled reaction with PK and LDH; type: biochemical, Zea mays; conditions: other: ZmADK2, 10 mM ATP, pH 7.5, 30 °C
Description: as §1

[3] = substrate: OC[C@H]1O[C@@H](n2cnc3c(O)ncnc32)[C@H](O)[C@@H]1O; experiment: ADK activity, coupled reaction with PK and LDH; type: biochemical, Zea mays; conditions: other: ZmADK2, 10 mM ATP, pH 7.5, 30 °C
Description: as §1

[4] = substrate: Nc1ncnc2c1ncn2[C@@H]1O[C@H](CO)[C@@H](O)[C@H]1O; experiment: ADK activity, coupled reaction with PK and LDH; type: biochemical, Zea mays; conditions: other: ZmADK2, 10 mM ATP, pH 7.5, 30 °C
Description: as §1

[5] = substrate: Nc1ccn([C@@H]2O[C@H](CO)[C@@H](O)[C@H]2O)c(=O)n1; experiment: ADK activity, coupled reaction with PK and LDH; type: biochemical, Zea mays; conditions: other: ZmADK2, 10 mM ATP, pH 7.5, 30 °C
Description: as §1

[6] = substrate: Nc1ncnc2c1ncn2[C@@H]1O[C@H](CO)C[C@H]1O; experiment: ADK activity, coupled reaction with PK and LDH; type: biochemical, Zea mays; conditions: other: ZmADK2, 10 mM ATP, pH 7.5, 30 °C
Description: as §1

[7] = substrate: O=c1[nH]c(=O)c2ncn([C@@H]3O[C@H](CO)[C@@H](O)[C@H]3O)c2[nH]1; experiment: ADK activity, coupled reaction with PK and LDH; type: biochemical, Zea mays; conditions: other: ZmADK2, 10 mM ATP, pH 7.5, 30 °C
Description: as §1

[8] = substrate: Nc1nc2c(ncn2[C@@H]2O[C@H](CO)[C@@H](O)[C@H]2O)c(=O)[nH]1; experiment: ADK activity, coupled reaction with PK and LDH; type: biochemical, Zea mays; conditions: other: ZmADK2, 10 mM ATP, pH 7.5, 30 °C
Description: as §1

[9] = substrate: Nc1ncnc2c1ncn2[C@@H]1O[C@H](CO)[C@@H](O)[C@H]1O; experiment: purified protein, by the assay type; conditions: pH 7.5, 30 °C
Description: The ADK activity was measured spectrophotometrically on an Agilent 8453 UV-Vis spectrophotometer (www.agilent.com) at 30 °C using a coupled reaction with pyruvate kinase (PK) and lactate dehydrogenase (LDH) (www.sigmaaldrich.com) ([Blondin et al., 1994]). In this assay, PK converts ADP produced by ADK and phosphoenolpyruvate (PEP) to pyruvate. Subsequently, LDH then converts pyruvate to lactate using the coenzyme NADH, with the conversion monitored at 340 nm. The reaction was conducted in 50 mM Tris–HCl buffer at pH 7.5, containing 50 mM KCl, 6 mM MgCl2, 300 µM PEP, 200 µM NADH, 10 mM ATP, 2 U of PK, and 2.5 U of LDH, using various nucleoside substrates. Kinetic constants were determined using GraphPad Prism 8.0 software (www.graphpad.com). […] The activities of all five ADKs were also measured by HPLC ([Moffatt et al., 1991]). The reaction mixture comprised 50 mM Tris–HCl pH 7.5, 5 mM MgCl2, 0.5 mM DTT, 30 mM NaF, 5 mM ATP, 40 µM substrate, and 2–150 ng of purified ADK, depending on the isoform. The reaction was incubated at 30 °C for up to 1 h. […] Similarly, the conversion of cytokinin ribosides to monophosphates was followed on a LiChrosphere 60 RP-Select B (5 µm) LiChroCART column 125-4 column equilibrated with 10 mM triethylamine at pH 5.4 plus 10% methanol, and stepwise eluted with 100% methanol.

[10] = substrate: CC(C)=CCNc1ncnc2c1ncn2C1OC(CO)C(O)C1O; experiment: ADK activity, coupled reaction with PK and LDH; type: biochemical, Physcomitrella patens; conditions: other: PpADK1, 10 mM ATP, pH 7.5, 30 °C
Description: (§2) Substrate analogs were purchased from Sigma-Aldrich (www.sigmaaldrich.com). The ADK activity was measured spectrophotometrically on an Agilent 8453 UV-Vis spectrophotometer (www.agilent.com) at 30 °C using a coupled reaction with pyruvate kinase (PK) and lactate dehydrogenase (LDH) (www.sigmaaldrich.com) ([Blondin et al., 1994]). In this assay, PK converts ADP produced by ADK and phosphoenolpyruvate (PEP) to pyruvate. Subsequently, LDH then converts pyruvate to lactate using the coenzyme NADH, with the conversion monitored at 340 nm. The reaction was conducted in 50 mM Tris–HCl buffer at pH 7.5, containing 50 mM KCl, 6 mM MgCl2, 300 µM PEP, 200 µM NADH, 10 mM ATP, 2 U of PK, and 2.5 U of LDH, using various nucleoside substrates. Kinetic constants were determined using GraphPad Prism 8.0 software (www.graphpad.com). Each measurement was performed six times using repetitive purified enzymes. The activities of all five ADKs were also measured by HPLC ([Moffatt et al., 1991]). The reaction mixture comprised 50 mM Tris–HCl pH 7.5, 5 mM MgCl2, 0.5 mM DTT, 30 mM NaF, 5 mM ATP, 40 µM substrate, and 2–150 ng of purified ADK, depending on the isoform. The reaction was incubated at 30 °C for up to 1 h. […]

[11] = substrate: Nc1ncnc2c1ncn2[C@@H]1O[C@H](CO)[C@@H](O)[C@H]1O; experiment: ADK activity, coupled reaction with PK and LDH; type: biochemical, Physcomitrella patens; conditions: other: PpADK1, 10 mM ATP, pH 7.5, 30 °C
Description: as §2

B1: ZmADK2 (Zea mays; T4S) (protein)
chain: MAASEGVLLGMGNPLLDISAVVDDAFLTKYDIKLNNAILAEEKHLPMYDELASKSNVEYIAGGATQNSIRVAQWMLQTPGATSYMGCIGKDKFGEEMKKNAQAAGVTAHYYEDETAPTGTCAVCVVGGERSLIANLSAANCYKSEHLKRPENWALVEKAKYIYIAGFFLTVSPDSIQLVAEHAAANNKVFLMNLSAPFICEFFRDAQEKVLPYADYIFGNETEAKIFAKVRGWETENIEEIALKISQLPLASGKQKRIAVITQGADPVVVAEDGKVKTFPVILLPKEKLVDTNGAGDAFVGGFLSQLVLGKGIEDCVRAGCYAANVIIQRPGCTYPEKPDFN
Which results are given for B1?
Km [1]: 524 ± 51 µM; kcat [1]: 0.24 ± 0.02 s⁻¹; Km [2]: 9.8 ± 1.5 µM; Km [3]: 420 ± 44 µM; kcat [3]: 0.57 ± 0.02 s⁻¹; Km [4]: 0.65 ± 0.09 µM; Km [5]: 313 ± 28 µM; kcat [5]: 0.23 ± 0.01 s⁻¹; Km [6]: 170 µM and 173 ± 11 µM; kcat [6]: 0.43 ± 0.01 s⁻¹; Km [7]: 178 ± 10 µM; kcat [7]: 0.55 ± 0.01 s⁻¹; Km [8]: 218 ± 23 µM; kcat [8]: 0.48 ± 0.02 s⁻¹

B2: PpADK2 (Physcomitrium patens) (protein)
chain: MASEGVLLGMGNPLLDISCVVDEAFLEKYGLTLNNAILAEDKHLPIYKELAGRPDVEYIAGGATQNTIRIAQWMLREPKATSYIGCVGKDEFGDRMYKLASEGGVNIQYDVDEELPTGTCGVLVVKGERSLVANLSAAKKYKIDHLKKPENWVCVERAKFIYSSGFFLAVSPESMMTVARHAAETGKYYMINLAAPFICQFKDLMELFPYVDFIFGNESEARTFAQVQGWETEDTKIIAVKLAALPKASGTHKRVAVITQGTDPTIVSVDGQVTEIPITVIPKNKLVDTNAAGDAFVGGFLSQLVLGKDIVECVRAGNYASSIIIQRSGCTFPLKPCFQSE
With B2 as the protein, how does the Km ([9]; other: PpADK2, 10 mM ATP) read?
Its Km is 0.54 ± 0.05 µM.

B3: ZmADK1 (Zea mays) (protein)
chain: MAASEGVLLGMGNPLLDISAVVDDAFLAKYDIKLNNAILAEEKHSPMYDELASNSNVEYIAGGATQNSIRVAQWMLQTPGATSYMGCIGKDKFGEEMKKNAQAAGVTAHYYEDETAPTGTCAVCVVGGERSLIANLSAANCYKSEHLKRPENWALVEKAKYIYIAGFFLTVSPDSIQLVAEHAAANNKVFLMNLSAPFICEFFYDAQEKVLPYADFIFGNETEAKIFAKVRGWETENVEEIALKISQLPLASGKQKRIAVITQGADPVVVAEDGKVKTFPVILLPKEKLVDTNGAGDAFVGGFLSRLVQGKSIEDCVTAGCYAANVVIQRPGCTYPEKPDFN
With B3 as the protein, how does the Km ([9]; other: ZmADK1, 10 mM ATP) read?
The Km was 0.62 ± 0.11 µM.

B4: PpADK1 (Physcomitrium patens) (protein)
chain: MASEGVLLGMGNPLLDISCVVDDAFLEKYGLTLNNAILAEDKHLPMYKELAANPDVEYIAGGATQNTIRIAQWMLGESNATSYFGCVGKDEYGDRMFKLASEGGVNIRYDVDEDLPTGTCGVLVVKGERSLVANLSAANKYKIDHLKKPENWAFVEKAKYIYSAGFFLTVSPESMMTVAKHAAETGKYYMINLAAPFICQFFKDPLMELFPYVDFIFGNESEARAFAQVQGWETEDTKVIAVKLAALPKAGGTHKRVAVITQGTDPTIVAEDGKVTEFPVTPIPKEKLVDTNAAGDSFVGGFLSQLVLGKDIAQCVRAGNYAASVIIQRSGCTFPSKPSFESQ
notes: made in house; host or cells: E. coli T7 Express Iq
Which results are given for B4?
Km [10]: 12.1 ± 2.5 µM; Km [11]: 0.71 ± 0.05 µM
